Reference: the supplement of paper PMC5998384

Columns and labels:
HeLa Kyoto [1] = assay: melting temperature (median over replicates), in situ; higher = more thermally stable
HeLa Kyoto [2] = assay: solubility in G1/S (NP-40 vs SDS abundance) (log2 ratio); higher = more soluble; conditions: cell cycle stage: G1/S
HeLa Kyoto [3] = assay: thermal stability score vs G1/S (z-score of summed log2 fold changes over temperatures); higher = more thermally stable than in G1/S
HeLa Kyoto [4] = assay: solubility change mitosis vs G1/S (difference of NP-40 vs SDS log2 ratios) (log2 ratio difference); higher = more soluble in mitosis
[5] = cell cycle stage: early G1 (4.5 h after nocodazole release)
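Wherever melting temperature (median over replicates), in situ is given: HeLa Kyoto cells synchronized by double thymidine or nocodazole block, proteins quantified by TMT10plex mass spectrometry, three independent biological replicates.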
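Wherever solubility change mitosis vs G1/S (difference of NP-40 vs SDS log2 ratios) is given: synchronized HeLa Kyoto cells (double thymidine block for G1/S, nocodazole release for mitosis), protein amounts in NP-40 versus SDS lysates quantified by mass spectrometry, three biological replicates.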
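Wherever solubility in G1/S (NP-40 vs SDS abundance) is given: HeLa Kyoto cells arrested at G1/S by double thymidine block, proteins quantified by TMT10plex mass spectrometry in mild NP-40 versus SDS extracts, three biological replicates.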
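Wherever thermal stability score vs G1/S (z-score of summed log2 fold changes over temperatures) is given: synchronized HeLa Kyoto cells, proteins quantified by TMT10plex mass spectrometry, three biological replicates, mitosis taken 0.5 h after nocodazole release, G1/S directly after double thymidine block.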

| Sequence | melting temperature (HeLa Kyoto [1]; cell cycle stage: G1/S) | melting temperature (HeLa Kyoto [1]; cell cycle stage: mitosis) | solubility in G1/S (log2) (HeLa Kyoto [2]) | thermal stability score (HeLa Kyoto [3]; [5]) | thermal stability score (HeLa Kyoto [3]; cell cycle stage: mitosis) | solubility change mitosis (log2) (HeLa Kyoto [4]) |
| --- | --- | --- | --- | --- | --- | --- |
| MAVADLALIPDVDIDSDGVFKYVLIRVHSAPRSGAPAAESKEIVRGYKWAEYHADIYDKVSGDMQKQGCDCECLGGGRISHQSQDKKIHVYGYSMAYGPAQHAISTEKIKAKYPDYEVTWANDGY [PHPT1] | 52.9 °C | 53.5 °C | 0.345 | -0.712 | -1.99 | 0.028 |
| MAVARVDAALPPGEGSVVNWSGQGLQKLGPNLPCEADIHTLILDKNQIIKLENLEKCKRLIQLSVANNRLVRMMGVAKLTLLRVLNLPHNSIGCVEGLKELVHLEWLNLAGNNLKAMEQINSCTALQHLDLSDNNISQIGDLSKLVSLKTLLLHGNIITSLRMAPAYLPRSLAILSLAENEIRDLNEISFLASLTELEQLSIMNNPCVMATPSIPGFDYRPYIVSWCLNLRVLDGYVISQKESLKAEWLYSQGKGRAYRPGQHIQLVQYLATVCPLTSTLGLQTAEDAKLEKILSKQRFHQRQLMNQSQNEELSPLVPVETRASLIPEHSSPVQDCQISQESEPVIQVNSWVGINSNDDQLFAVKNNFPASVHTTRYSRNDLHLEDIQTDEDKLNCSLLSSESTFMPVASGLSPLSPTVELRLQGINLGLEDDGVADESVKGLESQVLDKEEEQPLWAANENSVQMMRSEINTEVNEKAGLLPCPEPTIISAILKDDNHSLTFFPESTEQKQSDIKKPENTQPENKETISQATSEKLPMILTQRSVALGQDKVALQKLNDAATKLQACWRGFYARNYNPQAKDVRYEIRLRRMQEHIVCLTDEIRRLRKERDEERIKKFVQEEAFRFLWNQVRSLQVWQQTVDQRLSSWHTDVPPISSTLVPSKHPLFTQSQESSCDQNADWFIASDVAPQEKSLPEFPDSGFHSSLTEQVHSLQHSLDFEKSSTEGSESSIMGNSIDTVRYGKESDLGDVSEEHGEWNKESSNNEQDNSLLEQYLTSVQQLEDADERTNFDTETRDSKLHIACFPVQLDTLSDGASVDESHGISPPLQGEISQTQENSKLNAEVQGQQPECDSTFQLLHVGVTV [CEP97] | 49.6 °C | 49.9 °C | 0.0763 | 0.503 | 1.24 | -0.207 |
| MAVAVAMAGALIGSEPGPAEELAKLEYLSLVSKVCTELDNHLGINDKDLAEFVISLAEKNTTFDTFKASLVKNGAEFTDSLISNLLRLIQTMRPPAKPSTSKDPVVKPKTEKEKLKELFPVLCQPDNPSVRTMLDEDDVKVAVDVLKELEALMPSAAGQEKQRDAEHRDRTKKKKRSRSRDRNRDRDRDRERNRDRDHKRRHRSRSRSRSRTRERNKVKSRYRSRSRSQSPPKDRKDRDKYGERNLDRWRDKHVDRPPPEEPTIGDIYNGKVTSIMQFGCFVQLEGLRKRWEGLVHISELRREGRVANVADVVSKGQRVKVKVLSFTGTKTSLSMKDVDQETGEDLNPNRRRNLVGETNEETSMRNPDRPTHLSLVSAPEVEDDSLERKRLTRISDPEKWEIKQMIAANVLSKEEFPDFDEETGILPKVDDEEDEDLEIELVEEEPPFLRGHTKQSMDMSPIKIVKNPDGSLSQAAMMQSALAKERRELKQAQREAEMDSIPMGLNKHWVDPLPDAEGRQIAANMRGIGMMPNDIPEWKKHAFGGNKASYGKKTQMSILEQRESLPIYKLKEQLVQAVHDNQILIVIGETGSGKTTQITQYLAEAGYTSRGKIGCTQPRRVAAMSVAKRVSEEFGCCLGQEVGYTIRFEDCTSPETVIKYMTDGMLLRECLIDPDLTQYAIIMLDEAHERTIHTDVLFGLLKKTVQKRQDMKLIVTSATLDAVKFSQYFYEAPIFTIPGRTYPVEILYTKEPETDYLDASLITVMQIHLTEPPGDILVFLTGQEEIDTACEILYERMKSLGPDVPELIILPVYSALPSEMQTRIFDPAPPGSRKVVIATNIAETSLTIDGIYYVVDPGFVKQKVYNSKTGIDQLVVTPISQAQAKQRAGRAGRTGPGKCYRLYTERAYRDEMLTTNVPEIQRTNLASTVLSLKAMGINDLLSFDFMDAPPMETLITAMEQLYTLGALDDEGLLTRLGRRMAEFPLEPMLCKMLIMSVHLGCSEEMLTIVSMLSVQNVFYRPKDKQALADQKKAKFHQTEGDHLTLLAVYNSWKNNKFSNPWCYENFIQARSLRRAQDIRKQMLGIMDRHKLDVVSCGKSTVRVQKAICSGFFRNAAKKDPQEGYRTLIDQQVVYIHPSSALFNRQPEWVVYHELVLTTKEYMREVTTIDPRWLVEFAPAFFKVSDPTKLSKQKKQQRLEPLYNRYEEPNAWRISRAFRRR [DHX8] | 49.9 °C | 50.7 °C | -0.655 | 1.86 | 4.58 | 0.24 |
| MAVDITLLFRASVKTVKTRNKALGVAVGGGVDGSRDELFRRSPRPKGDFSSRAREVISHIGKLRDFLLEHRKDYINAYSHTMSEYGRMTDTERDQIDQDAQIFMRTCSEAIQQLRTEAHKEIHSQQVKEHRTAVLDFIEDYLKRVCKLYSEQRAIRVKRVVDKKRLSKLEPEPNTKTRESTSSEKVSQSPSKDSEENPATEERPEKILAETQPELGTWGDGKGEDELSPEEIQMFEQENQRLIGEMNSLFDEVRQIEGRVVEISRLQEIFTEKVLQQEAEIDSIHQLVVGATENIKEGNEDIREAIKNNAGFRVWILFFLVMCSFSLLFLDWYDS [STX18] | 50.1 °C | 50.8 °C | 0.186 | 0.0563 | -0.262 | -0.0525 |
| MAVEELQSIIKRCQILEEQDFKEEDFGLFQLAGQRCIEEGHTDQLLEIIQNEKNKVIIKNMGWNLVGPVVRCLLCKDKEDSKRKVYFLIFDLLVKLCNPKELLLGLLELIEEPSGKQISQSILLLLQPLQTVIQKLHNKAYSIGLALSTLWNQLSLLPVPYSKEQIQMDDYGLCQCCKALIEFTKPFVEEVIDNKENSLENEKLKDELLKFCFKSLKCPLLTAQFFEQSEEGGNDPFRYFASEIIGFLSAIGHPFPKMIFNHGRKKRTWNYLEFEEEENKQLADSMASLAYLVFVQGIHIDQLPMVLSPLYLLQFNMGHIEVFLQRTEESVISKGLELLENSLLRIEDNSLLYQYLEIKSFLTVPQGLVKVMTLCPIETLRKKSLAMLQLYINKLDSQGKYTLFRCLLNTSNHSGVEAFIIQNIKNQIDMSLKRTRNNKWFTGPQLISLLDLVLFLPEGAETDLLQNSDRIMASLNLLRYLVIKDNENDNQTGLWTELGNIENNFLKPLHIGLNMSKAHYEAEIKNSQEAQKSKDLCSITVSGEEIPNMPPEMQLKVLHSALFTFDLIESVLARVEELIEIKTKSTSEENIGIK [GLMN] | 52.2 °C | 51.3 °C | 0.0671 | 0.45 | 0.785 | -0.21 |
